Each block holds one binder with its values, some of them ahead of it.
Legend:
cIAP1 [1] = biological target: T1, cIAP1 (human, UniProt Q13490 1-618); test: nickel bead pull-down of His-tagged DDX3 from transfected HEK293A cells, anti-cIAP1 Western blot
Method: (§1) The transfected cells were incubated with 500 ng/ml TRA-8 overnight.

cIAP1 [2] = biological target: T1, cIAP1; test: TRAIL-R2 co-IP from transfected TRA-8-resistant tumor cells, Western blot with anti-DDX3 and anti-cIAP1
Method: as §1
Four type cells were transfected with DDX3ΔCARD. […] Furthermore, the susceptibility of transfected cells to TRA-8-mediated apoptosis was examined using the ATPLITE assay.

T1 sequence (Q13490 whole entry): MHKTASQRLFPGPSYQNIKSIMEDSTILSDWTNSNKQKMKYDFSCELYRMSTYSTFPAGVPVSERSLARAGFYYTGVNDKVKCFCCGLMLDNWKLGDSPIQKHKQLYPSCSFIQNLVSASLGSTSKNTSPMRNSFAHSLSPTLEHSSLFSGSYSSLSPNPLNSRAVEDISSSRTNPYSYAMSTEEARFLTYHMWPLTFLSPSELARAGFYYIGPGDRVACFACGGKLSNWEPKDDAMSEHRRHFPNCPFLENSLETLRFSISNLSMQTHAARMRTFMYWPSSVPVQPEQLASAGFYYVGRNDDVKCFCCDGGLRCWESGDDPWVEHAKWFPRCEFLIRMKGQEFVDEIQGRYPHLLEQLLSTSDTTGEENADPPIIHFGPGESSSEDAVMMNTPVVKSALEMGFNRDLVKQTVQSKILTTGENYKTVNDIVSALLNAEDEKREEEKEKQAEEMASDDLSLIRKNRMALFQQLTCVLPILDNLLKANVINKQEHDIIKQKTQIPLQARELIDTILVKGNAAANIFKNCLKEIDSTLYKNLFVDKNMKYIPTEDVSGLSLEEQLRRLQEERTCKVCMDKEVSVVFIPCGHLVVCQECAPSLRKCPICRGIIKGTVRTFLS

binding result (cIAP1 [1]): no binding
B1: DDX3Δ101-662 (other)
chain: RSDYDGIGSRGDRSGFGKFERGGNSRWCDKSDEDDWSKPLPPSERLEQELFSGGNTGINFEKYDDIPVEATGNNCPPHIESFSDVEMGEIIMGNIELTRYTRPTPVQKHAIPIIKEKRDLMACAQTGSGKTAAFLLPILSQIYSDGPGEALRAMKENGRYGRRKQYPISLVLAPTRELAVQIYEEARKFSYRSRVRPCVVYGGADIGQQIRDLERGCHLLVATPGRLVDMMERGKIGLDFCKYLVLDEADRMLDMGFEPQIRRIVEQDTMPPKGVRHTMMFSATFPKEIQMLARDFLDEYIFLAVGRVGSTSENITQKVVWVEESDKRSFLLDLLNATGKDSLTLVFVETKKGADSLEDFLYHEGYACTSIHGDRSQRDREEALHQFRSGKSPILVATAVAARGLDISNVKHVINFDLPSDIEEYVHRIGRTGRVGNLGLATSFFNERNINITKDLLDLLVEAKQEVPSWLENMAYEHHYKGSSRGRSKSSRFSGGFGARDYRQSSGASSSSFSSSRASSSRSGGGGHGSSRGFGGGGYGGFYNSDGYGGNYNSQGVDWWGN
notes: Transfected into HEK293A cells and pulled down with nickel beads; also called the DDX3 with the first 100 aa deleted; N-terminal aa 1-aa 100 deleted DDX3; not shown: N-terminal 6-His tag of the pcDNA3.1-His vector

binding result (cIAP1 [2]): no binding
B2: DDX3ΔCARD (DDX3Δ151-662) (other)
chain: FSGGNTGINFEKYDDIPVEATGNNCPPHIESFSDVEMGEIIMGNIELTRYTRPTPVQKHAIPIIKEKRDLMACAQTGSGKTAAFLLPILSQIYSDGPGEALRAMKENGRYGRRKQYPISLVLAPTRELAVQIYEEARKFSYRSRVRPCVVYGGADIGQQIRDLERGCHLLVATPGRLVDMMERGKIGLDFCKYLVLDEADRMLDMGFEPQIRRIVEQDTMPPKGVRHTMMFSATFPKEIQMLARDFLDEYIFLAVGRVGSTSENITQKVVWVEESDKRSFLLDLLNATGKDSLTLVFVETKKGADSLEDFLYHEGYACTSIHGDRSQRDREEALHQFRSGKSPILVATAVAARGLDISNVKHVINFDLPSDIEEYVHRIGRTGRVGNLGLATSFFNERNINITKDLLDLLVEAKQEVPSWLENMAYEHHYKGSSRGRSKSSRFSGGFGARDYRQSSGASSSSFSSSRASSSRSGGGGHGSSRGFGGGGYGGFYNSDGYGGNYNSQGVDWWGN
notes: also called CARD-truncated DDX3; dominant negative mutant DDX3 lacking aa 1-150
